Laboratory results as given in publication PMC5673899, “Structural basis for receptor recognition of pollen tube attraction peptides” (Nature Communications, 2017).
“Also recorded” adds a separate entry of the source.

Legend:
[1] = tested on: AtPRK6^LRR; assay: In vitro pull-down with AtPRK6^LRR; assay type: binding, Arabidopsis thaliana; details: Ni-NTA, excess AtLURE1.2, on ice 30 min, washed five times, 25 mM Tris pH 8.0, 150 mM NaCl; SDS-PAGE, Coomassie blue; repeated at least three times
Source text: (§1) The genes of AtPRK3 ^LRR (residues 1–241), AtPRK4 ^LRR (residues 1–277), AtPRK5 ^LRR (residues 1–279), AtPRK6 ^LRR (residues 1–262), MIK1 ^LRR (residues 1–633), MIK2 ^LRR (residues 1–707) were amplified from Arabidopsis cDNA library by PCR and cloned into pFastBac-1 vector with a C-terminal 6 × His-tag. Their identities were confirmed by sequencing. The mature form of AtLURE1.1 (residues 20–94), AtLURE1.2 (residues 20–90), AtLURE1.3 (residues 21–91), and AtLURE1.4 (residues 20–90) were cloned into pFastBac-1 vector, with a modified N-terminal hemolin signal peptide and 6 × His-SUMO tag. Point mutation constructs were generated by QuickChange Site-Directed Mutagenesis Kit (Strategene). All the proteins were expressed using the Bac-to-Bac baculovirus expression system (Invitrogen) in High Five cells at 22 °C. One liter of High Five cells (2.0 × 10^6 cells mL^−1) cultured in the medium from Expression Systems was infected with 25 ml recombinant baculovirus and the media was collected after 72 h of infection. Secreted LRR proteins were purified using Ni-NTA (Novagen) and size-exclusion chromatography (Hiload 200, GE Healthcare) in buffer containing 10 mM Bis-Tris pH 6.0 and 100 mM NaCl. The His-SUMO tag of the AtLURE proteins was removed by Prescission Protease at 4 °C overnight in buffer containing 25 mM Tris pH 8.0 and 150 mM NaCl. All AtLURE proteins were further cleaned by size-exclusion chromatography (Hiload 200, GE Healthcare). For co-expression of AtPRK6^LRR and AtLURE1, one liter of High Five cells were co-infected with 20 and 30 ml recombinant baculovirus of AtPRK6^LRR and AtLURE1, respectively. Secreted AtPRK6^LRR-AtLURE1 complexes were processed with Prescission Protease digestion and then purified as described above. Expression and purification procedures of all the mutants were essentially the same as those of AtPRK6^LRR and AtLURE1.2.
(§2) The purified His-tagged ectodomains of AtPRK proteins and MIK1, 2 were used to pull-down the AtLURE1.2 peptide. […] All the eluted samples were analyzed by SDS-PAGE and visualized by Coomassie blue staining. […]

[2] = tested on: AtPRK6^LRR ΔN239I240; assay: In vitro pull-down with AtPRK6^LRR mutant with Asn239 and Ile240 deleted; assay type: binding, Arabidopsis thaliana; details: wild-type AtLURE1.2
Source text: as §1, with “The His-SUMO tag of the AtLURE proteins was removed by Prescission Protease at 4 °C overnight in buffer containing 25 mM Tris pH 8.0 and 150 mM NaCl. All AtLURE proteins were further cleaned by size-exclusion chromatography (Hiload 200, GE Healthcare). For co-expression of AtPRK6^LRR and AtLURE1, one liter of High Five cells were co-infected with 20 and 30 ml recombinant baculovirus of AtPRK6^LRR and AtLURE1, respectively. Secreted AtPRK6^LRR-AtLURE1 complexes were processed with Prescission Protease digestion and then purified as described above. Expression and purification procedures of all the mutants were essentially the same as those of AtPRK6^LRR and AtLURE1.2.” left out
as §2

B1: AtLURE1.2: mature form of AtLURE1.2 (residues 20–90), defensin-like cysteine-rich peptide expressed in insect cells (protein)
chain: TLINGSSDEERTYSFSPTTSPFDPRSLNQELKIGRIGYCFDCARACMRRGKYIRTCSFERKLCRCSISDIK
modifications: left off: His6, N-terminal, cleaved | SUMO, N-terminal, cleaved
notes: mature form of AtLURE1.2 (residues 20–90), defensin-like cysteine-rich peptide expressed in insect cells
interaction in pull-down assay [1]: strongly interacted | interaction in pull-down assay [2]: A similar effect was observed; also recorded: significantly compromised
